Data from patent US20240376225A1 (CHILDREN S MEDICAL CENTER, published 2024).
Substitutions are numbered along the chain they refer to. Where two headings read alike, the source gives them in different places. Values belong to the binder of their own block, whether it stands above or below them.

Key:
[1] = molecular target: T1, human CD21 protein (human, UniProt P20023 21-971, limits assumed); assay: SPR (Biacore)
T1 construct: the Biacore set-up is not described; also called huCD21; CR2
T1 sequence (looked up): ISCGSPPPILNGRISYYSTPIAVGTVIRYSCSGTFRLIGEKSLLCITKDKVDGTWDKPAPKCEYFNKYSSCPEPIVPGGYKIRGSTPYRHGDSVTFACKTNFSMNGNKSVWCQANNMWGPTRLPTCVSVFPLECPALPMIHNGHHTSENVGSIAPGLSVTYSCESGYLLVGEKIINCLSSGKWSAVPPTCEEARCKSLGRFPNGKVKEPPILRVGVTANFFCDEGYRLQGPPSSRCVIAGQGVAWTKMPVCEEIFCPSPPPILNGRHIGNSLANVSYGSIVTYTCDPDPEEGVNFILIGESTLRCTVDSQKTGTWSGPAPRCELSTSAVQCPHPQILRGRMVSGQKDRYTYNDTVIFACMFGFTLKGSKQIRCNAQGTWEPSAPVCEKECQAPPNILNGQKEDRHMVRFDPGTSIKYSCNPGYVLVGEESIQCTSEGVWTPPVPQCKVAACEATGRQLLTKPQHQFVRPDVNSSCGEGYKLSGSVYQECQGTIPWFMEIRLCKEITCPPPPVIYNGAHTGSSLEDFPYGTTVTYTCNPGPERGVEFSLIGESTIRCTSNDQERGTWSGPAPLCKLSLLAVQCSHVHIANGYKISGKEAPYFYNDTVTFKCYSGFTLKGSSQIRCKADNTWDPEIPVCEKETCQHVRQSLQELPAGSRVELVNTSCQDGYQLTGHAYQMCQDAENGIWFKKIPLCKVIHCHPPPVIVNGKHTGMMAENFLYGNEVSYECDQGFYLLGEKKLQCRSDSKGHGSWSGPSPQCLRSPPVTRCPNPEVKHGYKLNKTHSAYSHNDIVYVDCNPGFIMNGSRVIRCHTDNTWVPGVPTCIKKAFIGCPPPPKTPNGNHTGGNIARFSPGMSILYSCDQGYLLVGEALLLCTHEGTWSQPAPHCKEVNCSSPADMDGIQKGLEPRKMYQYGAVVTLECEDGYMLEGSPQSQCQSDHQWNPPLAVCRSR

[2] = molecular target: T1, human CD21 protein; assay: SPR (Biacore), KD against Ab89
[3] = molecular target: cyno CD21 protein (cynomolgus monkey); assay: affinity KD; method not restated (Biacore elsewhere)
[4] = molecular target: cyno CD21 protein (cynomolgus monkey); assay: SPR (Biacore), KD against Ab89
[5] = molecular target: cyno CD21 protein (cynomolgus monkey); assay: SPR (Biacore)
[6] = molecular target: T2, human CD21 on Raji B cells or primary B cells (human, UniProt P20023 21-1033); assay: cell-based or functional assay
T2 sequence (looked up): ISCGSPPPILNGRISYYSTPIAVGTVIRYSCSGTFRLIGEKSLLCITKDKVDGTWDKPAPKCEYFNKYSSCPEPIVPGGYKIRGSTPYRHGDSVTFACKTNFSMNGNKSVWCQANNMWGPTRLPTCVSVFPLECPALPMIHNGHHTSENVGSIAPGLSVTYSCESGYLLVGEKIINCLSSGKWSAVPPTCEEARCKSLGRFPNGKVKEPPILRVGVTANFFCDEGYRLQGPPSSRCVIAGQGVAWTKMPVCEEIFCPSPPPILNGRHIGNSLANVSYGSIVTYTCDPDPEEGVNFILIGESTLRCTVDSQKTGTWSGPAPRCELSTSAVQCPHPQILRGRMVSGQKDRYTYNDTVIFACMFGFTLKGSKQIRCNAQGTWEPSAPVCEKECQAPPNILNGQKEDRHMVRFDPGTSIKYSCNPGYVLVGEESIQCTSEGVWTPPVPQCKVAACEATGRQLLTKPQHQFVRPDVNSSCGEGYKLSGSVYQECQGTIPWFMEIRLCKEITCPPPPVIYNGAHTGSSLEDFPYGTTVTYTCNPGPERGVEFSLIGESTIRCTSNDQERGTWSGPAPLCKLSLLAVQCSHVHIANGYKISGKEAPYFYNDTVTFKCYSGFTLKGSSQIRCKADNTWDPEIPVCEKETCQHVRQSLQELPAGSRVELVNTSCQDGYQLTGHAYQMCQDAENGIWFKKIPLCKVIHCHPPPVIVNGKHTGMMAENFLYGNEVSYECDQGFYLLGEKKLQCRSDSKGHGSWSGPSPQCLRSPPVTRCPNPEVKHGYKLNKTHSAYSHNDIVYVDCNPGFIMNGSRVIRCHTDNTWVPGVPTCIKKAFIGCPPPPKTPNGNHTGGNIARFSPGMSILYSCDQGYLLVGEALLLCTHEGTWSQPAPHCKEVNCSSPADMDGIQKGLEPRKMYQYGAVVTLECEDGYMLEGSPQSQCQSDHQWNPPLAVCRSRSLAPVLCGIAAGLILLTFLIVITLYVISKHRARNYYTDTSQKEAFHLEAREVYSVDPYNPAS

[7] = molecular target: insulin (UniProt P01308); assay: polyreactivity ELISA on coated insulin; third number of the cell
Sequence of insulin (P01308 25-54 limits assumed, chain 1 of 2): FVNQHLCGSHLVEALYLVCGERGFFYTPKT
Sequence of insulin (P01308 90-110 limits assumed, chain 2 of 2): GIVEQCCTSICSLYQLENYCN

[8] = molecular target: T1, human CD21 protein; assay: SPR (Biacore); remark: listed apart in the source
[9] = molecular target: cyno CD21 protein (cynomolgus monkey); assay: SPR (Biacore); remark: listed apart in the source
[10] = molecular target: T2, human CD21 on Raji B cells or primary B …; assay: cell-based or functional assay; remark: listed apart in the source
[11] = molecular target: T1, human CD21 protein; assay: affinity KD; method not restated (Biacore elsewhere)
[12] = molecular target: T2, human CD21 on Raji B cells or primary B …; assay: competition with human C3d on primary B cells
[13] = molecular target: T2, human CD21 on Raji B cells or primary B …; assay: Raji B cell binding
[14] = molecular target: T2, human CD21 on Raji B cells or primary B …; assay: competition with human C3d on Raji B cells
[15] = molecular target: T1, human CD21 protein; assay: SPR (Biacore); remark: listed apart in the source
[16] = molecular target: T1, human CD21 protein; assay: affinity KD; method not restated (Biacore elsewhere); remark: listed apart in the source

Kd [3]: 150 pM | insulin-binding score (ratio to buffer well) [7]: 1 | Kd [16]: 10 pM | Kd [11]: 10 pM
B3: Ab648 (antibody, human IgG1, kappa, V domains shown)
VH: QVQLVQSGAEVKKPGSSVKVSCKASGGELSTYAISWVRQAPGQGLEWMGRIIPILGIANYAQKFQGRVTITADKSTSTAYMELSSLRSEDTAVYYCAREEDISGYYQDWGQGTLVTVSS
VL: EIVMTQSPATLSVSPGERATLSCRAGQSISSYLAWYQQKPGQAPRLLIYDASSRATGIPARFSGSGSGTEFTLTISSLQSEDFAVYYCQQYEYWYSFGQGTKLEIKR
notes: IgG1

Kd [3]: 50 pM | insulin-binding score (ratio to buffer well) [7]: 1 | Kd [16]: 10 pM | Kd [11]: 10 pM
B4: Ab646 (antibody, human IgG1, kappa, V domains shown)
VH: B3 VH with S30Q, Y32L
VL: B3 VL
notes: IgG1

The next lines start with the binder.

B1: Ab423 (antibody, human IgG1, kappa, V domains shown)
VH: B3 VH with E28T, L29F, T31S, E100D
VL: B3 VL with S30N, S53T, S96T
notes: IgG1
Kd [1]: 39.9 pM | fold affinity improvement over parental Ab89 [2]: 1780 fold | Kd [3]: 230 pM | fold affinity improvement over parental Ab89 [4]: 92 fold | Kd [5]: 230 pM | pAKT inhibition, IC50, nM; Primary B cells [6]: 7.94 nM | pAKT inhibition, IC50, nM; Raji B cells [6]: 14.9 nM | insulin-binding score (ratio to buffer well) [7]: 2 | Kd [8]: 39 pM | Kd [9]: 233 pM | pAKT inhibition, IC50, nM; Primary B cells [10]: 7.94 nM | pAKT inhibition, IC50, nM; Raji B cells [10]: 14.9 nM | Kd [11]: 39 pM

B2: Ab89 (antibody, human IgG1, kappa, V domains shown)
VH: B3 VH with E28T, L29F, T31S, E100D, I102S
VL: B3 VL with S30N, Y32H, S53T, S96T
notes: IgG1; also called germlined derivative of Ab15
IC50 [12]: 1220 pM | EC50 [13]: 6370 pM | Kd [9]: 21400 pM | IC50 [14]: 2130 pM | Kd [15]: 71100 pM
